Test results: publication PMC10511320, “R-loop-dependent promoter-proximal termination ensures genome stability”

What was measured:
SSB1 R206Q = SSB1 R206Q (human, UniProt Q9BQ15 1-211, R206Q); test: EMSA; retains ssDNA binding; EMSA: 100 nM Cy3 probe, 20 mM Tris-HCl pH 7.5, 50 mM NaCl, 5 mM MgCl2, 0.2 mM EDTA, 1 mM DTT, on ice 30 min; 6% native PAGE, 0.5x TBE, cold room; conditions: protein: recombinant; label: 3' Cy3
SSB1 S172P/H173L = SSB1 S172P/H173L (human, UniProt Q9BQ15 1-211, S172P;H173L); test: as above; conditions: protein: recombinant; label: 3' Cy3
[1] = molecular target: SSB1;INTAC complex (Integrator-PP2A) (human;human, UniProt Q9BQ15;Q8N201;Q9H0H0;Q68E01;Q96HW7;Q6P9B9;Q9UL03;Q9NVH2;Q75QN2;Q9NV88;Q9NVR2;Q5T …, |); test: EMSA; supershift versus SSB1 alone; EMSA: 100 nM Cy3 probe, 20 mM Tris-HCl pH 7.5, 50 mM NaCl, 5 mM MgCl2, 0.2 mM EDTA, 1 mM DTT, on ice 30 min; 6% native PAGE, 0.5x TBE, cold room; conditions: protein: recombinant;recombinant; on-column cleavage; copies: 1;1;1;1;1;1;1;1;1;1;1;1;1;1;1;1;1; label: 3' Cy3

Measured: binding result

SSB1 R206Q, sequence (Q9BQ15 whole entry R206Q): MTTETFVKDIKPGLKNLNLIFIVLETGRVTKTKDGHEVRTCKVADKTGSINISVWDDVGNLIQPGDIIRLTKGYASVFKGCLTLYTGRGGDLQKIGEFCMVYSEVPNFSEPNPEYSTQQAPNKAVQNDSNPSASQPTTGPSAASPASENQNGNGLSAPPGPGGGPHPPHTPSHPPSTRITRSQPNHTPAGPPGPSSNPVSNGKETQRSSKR
SSB1 S172P/H173L, sequence (Q9BQ15 whole entry S172P/H173L): as the sequence (Q9BQ15 whole entry R206Q) above, with S172P, H173L, Q206R counted along it

B1: oligo (dT)48 (ssDNA)
DNA: TTTTTTTTTTTTTTTTTTTTTTTTTTTTTTTTTTTTTTTTTTTTTTTT
binds: all assays above
